This is an account of results in patent US20260139035A1 (published 2026).

Numbering of substitutions follows the chain as printed.

B1: 4-66 antibody (antibody, V domains shown)
VH: EVQLVESGGGLVQPGGSLRLSCAASGIIVSRNYMTWVRQAPGKGLEWVSVIYSGGTTYYADSVKGRFTTSRDDSKNTLYLQMNSLRGDDTAVYYCARDPPHRRGSYWGQGTLVTVSS
VL: DILMTQSPSSLSASVGDRVTITCQASQDINKYLNWYQQKPGKAPKLLIYDASNLETGVPSRFSGSGSGTDFSFTISSLQPEDVATYYCQQSDNLPPTFGQGTNVEIK
B2: 1-58 antibody (antibody, V domains shown)
VH: QVQLVQSGAEVKKPGASVRVSCKASGYSFTASYMHWVRQAPGQGLEWMAIINPGDDNTSYAQKFQGRVTLTRDTSTTTVYMELRSLRSEDTAVYYCTRSTRDYVWGNYRYTPGYYLDYWGQGTLVTVSS
VL: DIRMTQSPSSLSASVGDRVTITCRASQTISNYLNWYQQKPGKAPKLLIYAASSLQSGVPSRFSGSGSGTDFTLTISSLQPEDFATYYCQQGYITPITFGQGTRLEIK
B3: 1-44 antibody (antibody, V domains shown)
VH: EVQLVESGGGVVQPGSSLRLSCAASGFTFRSHAMHWVRQAPGKGLEGVAVIWYDGSNKYYADSVKGRFTISRDNSKNTLYLQMNSLRAEDTAVYYCAREGIAVPGNGADAFDIWGQGTMVTVSS
VL: B2 VL with R3Q, T28S, S30G, Y32F, G91T, I93S, I96Y, R103K
B4: 3-1 antibody (antibody, V domains shown)
VH: EVQLVQSGAEVKKPGESLKISCKGSGYIFTNYWIGWVRQMPGKGLEWMGIINPRDSDTRYSPSFQGQVTISTDKSINTAYLQWSSLKASDTAMYYCARQQGGFGDLGAYNWFDPWGQGTLVTVSS
VL: not shown

In the assay the target is RBD of the SARS-CoV-2 spike protein (Cayman Chemical kit #502050) (UniProt P0DTC2 319-541).
For orientation: IC50 means the concentration at which inhibition is half-maximal. The low end stands for higher potency, the high end for lower potency. B1: the midpoint of inhibition, the IC50, lay at 0.015 µg/mL.
Take B2: the IC50 came out at 0.028 µg/mL.
The figure for B3 is 0.013 µg/mL; for B4 it is 0.031 µg/mL.
